Test results taken from patent US11994512B2, “Single-cell genomic methods to generate ex vivo cell systems that recapitulate in vivo biology with improved fidelity” (Massachusetts Institute of Technology, priority 2018, dated 2024).

B1: Q80V42 (protein, UniProt Q80V42 1-443, looked up)
chain: MDRARLWLGLLLPVVAALDFRYHHQEGMEAFLKSVAQNYSSITHLHSIGKSVRGRNLWVLVVGQTPKEHRVGIPEFKYVANMHGDETVGRELLLHLIDYLVSSYRKDPEITHLIDSTRIHIMPSMNPDGFEAVQKPDCYYSNGRENYNNYDLNRNFPDAFENNNVTKQPETLAIMEWLKTETFVLSANLHGGALVASYPFDNGVQATGTLLSRSLTPDDDVFQHLAYTYASRNPNMTKGDQCKNKRNFPNGIINGYSWYPLQGGMQDYNYIWAQCFEITLELSCCKYPREEKLPLFWNDNKASLIEYIKQVHLGVKGQVFDQSGAPLPNVIVEVQDRKHICPFRTNKLGEYYLLLLPGSYVINVTVPGHDSYLTKLTIPGKSQPFSALKKDFHLPLRWQPDSISVSNPSCPMIPLYKFMPSHSAATKPSLGVFFMTLLYVFFK
modifications: full-length
B2: Q6ZQL4 (protein, UniProt Q6ZQL4 1-677, looked up)
chain: MAAGGGGSYDPLAPAGVPCAFSPDSQAYFALASSDGQLRVWETANNRLHQEYVPSAHLSGTCTCLAWAPARLQAKESHQRKKRKSEVTGTKDQADLLALGTAVGSILLYSTVRGELHSKLTSGGHENRVNCIQWHQDNDCLYSCSDDKYIVEWSTQTCKVKCKWKGDNSSVSSLCISPDGKMLLSAGRTIKLWVLETKEVYRHFTGHATPVSSLRFTTIRPNESQPSDGITGLYFLSGAVHDRLLNVWQVRSENKEKSAVMSFTVTDEPVYVDLTLSENKEEPVKLAVVCRDGQVHLFEHILNGHCKKPLTSNCTIQIATPGKGKKVTPKPIPILAASFCLDKMSLLLVYGNWFQPTIERVALNSKDTHICLERDISNCWAPTVETAITKVKTPVMNSEAKVLVPGIPGHHAPIKLPPAQPKEAENKRKLGSTEATIEERLGAMDLDRKGRKDDLQTNSFAVLLTQGLESNDFEILNKVLQTKNVNLIKRTVLRIPLRVVIPLLQELTKRLQGHPNSAALMIQWLKCVLTIHASYLSTLPDLVEQLGTLYQLMESRVKTFQKLSNLHGKLILLVTQVTASEKSKKMTSPGQKAKLVYEEESSEEESDDEVPEKDSDDNWDEDEDKDSEKDEGVDEDNEEEDEDMEDKEENEEDREVSSEKELNGDSDLDPENESEEE
modifications: full-length
B3: Q80Z37 (protein, UniProt Q80Z37 1-1033, looked up)
chain: MGSQPPPPGSPLSREEGEAPPLVPAEEGRRRSRRVRLRGSCRHRPSLLSRRELASNGPAVPATASSEIMASAAKEFKMDNFSPKAGTSKLQQTVPADASPDSKCPICLDRFDNVSYLDRCLHKFCFRCVQEWSKNKAECPLCKQPFDSIFHSVRAEDDFKEYVLRPSYNGSFTNPEVRRFRYRTTMTRERSASLYSPSSTVSRRTTTPPDSGVLFEGLGISTRPRDVDIPQFMRQMALRGPTTTDERSLRKIQEQDIINFRRTLYRAGVRVRSIEDGGRYRDISAEFFRRNPACLHRLVPWLKRELTVLFGAHGSLVNIVQHIIMSNVTRYDLESQAFVSDLRPFLLNRTEHFIHEFISFARSPFNMAAFDQHANYDCPPSSEEGSRSDSSVITISPDEAETQELDMNASTVRQAPWDDETPGPSYSSSEQVHVGVSSLLNSSDSSDEELVSGGTTSQIQGVQTNDDVNNDSDSSSDNCVIVGFVKPLAERTPELVELSSDSEELGPYEKVETVKTQEQEQSYSSGDSDVSRASSPRSVLGKDEQMSKSHCDSDTRISSKKEEKRSTSLPAPRDSSSTRGDRVCSPYNHRHRKGGRSRSSDSRSQSRSGHDPRNHRKHGKKRLRNKRSRSRESSSRPRARKDKKRSRTRDSSWSRRSQTLSLSSGSTSRSRSRSSDHGKRRSRSRNRDRYYLRNNYGSKYKWEYTYYSRNKDRDGYESSYRRRTLSRAHYSRQSSSPEFRIQSFSERTNARKKNHSERKYYYYERRRSRSVSSNRSRTTSAGPDRVRNEKPGGKRKYKTRHLEGTSEEAQPAREFTSKGKDSHYQKSKLDGSYKNESDSFSDSRSSDRETKHKRRRRRTRSLSVEIVYEGKATDTSKHHKKKKKKHKKKHKKHHGDNTSRSPVVITIDSDSDGESEVKAGIECSNGSLPQPIQDGAFETKDVVTIEDELGVLDKDCDVTALADDLSTSQTVENCDSPAVPVEQTLDVREESTFASDLESQSSNVSIQAEPSRPVPSPRTSLSSVSPGRDCDVS
modifications: full-length
B4: Q7TQD2 (protein, UniProt Q7TQD2 1-218, looked up)
chain: MADSKAKPAKAANKTPPKSPGDPARAAKRLSLESEGANEGATAAPELSALEEAFRRFAVHGDTRATGKEMHGKNWSKLCKDCHVIDGKNVTVTDVDIVFSKIKGKSCRTITFEQFQEALEELAKKRFKDKSSEEAVREVHRLIEGRAPVISGVTKAVSSPTVSRLTDTSKFTGSHKERFDQSGKGKGKAGRVDLVDESGYVPGYKHAGTYDQKVQGGK
modifications: full-length
B5: Q768S4 (protein, UniProt Q768S4 1-302, looked up)
chain: MADTIFSSGNDQWVCPNDRQLALRAKLQTGWSVHTYQTEKQRRSQCLSPGELEIILQVIQRAERLDILEQQRIGRLVERLETMQRNVMGNGLSQCLLCGEVLGFLGSSSVFCKDCRKKVCTKCGIEASPGQKRPLWLCKICSEQREVWKRSGAWFYKGLPKYILPLKTPGRADDPHFRPLPVEPTETQPPSAETSRVYTWARGRVVSSDSDSDSDLSSSSLEDRPLPSGVKGTKGDKPRGDSGASMESPRLGPARPPSHLSGSQSSLGSEAGTGATEPQGGTPAQPEPRVPGKRHTWATPRY
modifications: full-length
B6: Q7TNV0 (protein, UniProt Q7TNV0 1-380, looked up)
chain: MSAAAAPAAEGEDAPVPPSSEKEPEMPGPREESEEEEEDDEDDDEEDEEEEKEKSLIVEGKREKKKVERLTMQVSSLQREPFTVTQGKGQKLCEIERIHFFLSKKKPDELRNLHKLLYNRPGTVSSLKKNVGQFSGFPFEKGSTQYKKKEEMLKKFRNAMLKSICEVLDLERSGVNSELVKRILNFLMHPKPSGKPLPKSKKSSSKGSKKERNSSGTTRKSKQTKCPEILSDESSSDEDEKKNKEESSEDEEKESEEEQPPKKTSKKEKAKQKATAKSKKSVKSANVKKADSSTTKKNQKSSKKESESEDSSDDEPLIKKLKKPPTDEELKETVKKLLADANLEEVTMKQICKEVYENYPAYDLTERKDFIKTTVKELIS
modifications: full-length
B7: Q8BK48 (protein, UniProt Q8BK48 1-559, looked up)
chain: MPLYKLLGWLNAVACGVLLLVLHVQGQDSASPIRNTHTGQVRGSLVHVKDTDIAVHTFLGIPFAKPPVGPLRFAPPEAPEPWSGVRDGTSHPNMCLQNDNLMGSEDLKMMNLILPPISMSEDCLYLNIYVPAHAHEGSNLPVMVWIHGGALTVGMASMYDGSMLAATEDVVVVAIQYRLGVLGFFSTGDQHAKGNWGYLDQVAALRWVQQNIVHFGGNPDRVTIFGESAGGTSVSSHVVSPMSQGLFHGAIMESGVAVLPDLISSSSEMVHRIVANLSGCAAVNSETLMCCLRGKNEAEMLAINKVFKIIPGVVDGEFLPKHPQELMASKDFHPVPSIIGINNDEYGWILPTIMDPAQKIEEITRKTLPAVLKSTALKMMLPPECGDLLMEEYMGDTEDPETLQAQFREMKGDFMFVIPALQVAHFQRSHAPVYFYEFQHRPSFFKDFRPPYVKADHGDEIFLVFGYQFGNIKLPYTEEEEQLSRRIMKYWANFARHGNPNSEGLPYWPVMDHDEQYLQLDIQPSVGRALKARRLQFWTKTLPQKIQELKGSQERHKEL
modifications: full-length
B8: Q80XU3 (protein, UniProt Q80XU3 1-234, looked up)
chain: MSRPVRNRKVVDYSQFQESDDADEDYGRDSGPPAKKIRSSPREAKNKRRSGKNSQEDSEDSEEKDVKTKKDDSHSAEDSEDEKDDHKNVRQQRQAASKAASKQREMLLEDVGSEEEPEEDDEAPFQEKDSGSDEDFLMEDDDDSDYGSSKKKNKKMVKKSKPERKEKKMPKPRLKATVTPSPVKGKAKVGRPTASKKSKEKTPSPKEEDEEAESPPEKKSGDEGSEDEASSGED
modifications: full-length

system: intracellular proteome of ENR+CD and ENR organoids; experiment: LC-MS/MS TMT proteomics of ENR+CD versus ENR organoids; type: cell-based, C57BL/6 mice; conditions: ENR+CD versus ENR organoids, sample pairs in aggregate (n=4, 2 technical replicates from two biological donors)

Molecule | Average logFC
B1 | 1.366
B2 | −1.143
B3 | 1.193
B4 | 1.241
B5 | 1.363
B6 | −1.42
B7 | −1.69
B8 | −1.313

same assay, conditions: protein abundance ratio ENR+CD versus ENR organoids, sample pair M1-1; LC-MS/MS TMT proteomics

Molecule | M1-1 Log2 Median Normalized
B1 | 1.517
B2 | −1.562
B3 | 1.31
B4 | 1.195
B5 | 1.2
B6 | −1.8
B7 | −1.646
B8 | −1.892

same assay, conditions: protein abundance ratio ENR+CD versus ENR organoids, sample pair M1-2; LC-MS/MS TMT proteomics

Molecule | M1-2 Log2 Median Normalized
B1 | 1.383
B2 | −0.715
B3 | 0.914
B4 | 1.666
B5 | 0.548
B6 | −0.726
B7 | −1.907
B8 | −0.72

same assay, conditions: protein abundance ratio ENR+CD versus ENR organoids, sample pair M2-1; LC-MS/MS TMT proteomics

Molecule | M2-1 Log2 Median Normalized
B1 | 1.3355
B2 | −0.9435
B3 | 1.7665
B4 | 0.7645
B5 | 1.8455
B6 | −1.2915
B7 | −2.1625
B8 | −1.5225

same assay, conditions: protein abundance ratio ENR+CD versus ENR organoids, sample pair M2-2; LC-MS/MS TMT proteomics

Molecule | M2-2 Log2 Median Normalized
B1 | 1.228
B2 | −1.351
B3 | 0.782
B4 | 1.337
B5 | 1.859
B6 | −1.861
B7 | −1.046
B8 | −1.116

same assay, conditions: up = enriched in ENR+CD, down = enriched in ENR; FDR<0.05 and log fold change cut-off

Molecule | change
B1 | up
B2 | down
B3 | up
B4 | up
B5 | up
B6 | down
B7 | down
B8 | down
